The values below are quoted from earlier work in publication PMC6679586.

For the series, the target named is Activin A mature domain mature domain (Homo sapiens) (UniProt P08476).

As to “Activin A prodomain prodomain (from UniProt P08476)”, the Kd was 5 nM.

In general, Kd refers to the concentration at which binding is half-saturated.
